Measurements: patent US20230212305A1 (published 2023)
One block for each binder: values may come before it.

Experiments:
human ABCG2 [1] = biological target: T1, human ABCG2 (UniProt Q9UNQ0 1-655); experiment: cell binding
T1 chain: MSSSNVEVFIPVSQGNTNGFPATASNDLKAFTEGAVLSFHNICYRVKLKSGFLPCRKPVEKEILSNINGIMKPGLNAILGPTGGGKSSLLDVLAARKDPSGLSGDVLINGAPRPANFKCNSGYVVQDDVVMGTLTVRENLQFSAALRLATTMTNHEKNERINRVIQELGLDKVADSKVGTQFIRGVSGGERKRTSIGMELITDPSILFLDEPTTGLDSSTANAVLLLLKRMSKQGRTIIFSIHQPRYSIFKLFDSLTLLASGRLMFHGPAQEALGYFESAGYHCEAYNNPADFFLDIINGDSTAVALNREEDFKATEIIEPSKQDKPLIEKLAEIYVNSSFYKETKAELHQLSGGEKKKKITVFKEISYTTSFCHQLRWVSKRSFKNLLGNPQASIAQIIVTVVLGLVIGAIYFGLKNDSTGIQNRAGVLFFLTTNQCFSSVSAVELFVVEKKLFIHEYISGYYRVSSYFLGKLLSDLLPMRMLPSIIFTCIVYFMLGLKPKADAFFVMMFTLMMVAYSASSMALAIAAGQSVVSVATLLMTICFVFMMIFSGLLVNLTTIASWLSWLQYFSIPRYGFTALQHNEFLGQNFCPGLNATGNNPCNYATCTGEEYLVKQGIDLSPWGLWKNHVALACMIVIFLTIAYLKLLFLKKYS

[2] = biological target: T2, cynomolgus ABCG2 (Macaca fascicularis) (UniProt Q5MB13 1-654); experiment: cell binding
T2 chain: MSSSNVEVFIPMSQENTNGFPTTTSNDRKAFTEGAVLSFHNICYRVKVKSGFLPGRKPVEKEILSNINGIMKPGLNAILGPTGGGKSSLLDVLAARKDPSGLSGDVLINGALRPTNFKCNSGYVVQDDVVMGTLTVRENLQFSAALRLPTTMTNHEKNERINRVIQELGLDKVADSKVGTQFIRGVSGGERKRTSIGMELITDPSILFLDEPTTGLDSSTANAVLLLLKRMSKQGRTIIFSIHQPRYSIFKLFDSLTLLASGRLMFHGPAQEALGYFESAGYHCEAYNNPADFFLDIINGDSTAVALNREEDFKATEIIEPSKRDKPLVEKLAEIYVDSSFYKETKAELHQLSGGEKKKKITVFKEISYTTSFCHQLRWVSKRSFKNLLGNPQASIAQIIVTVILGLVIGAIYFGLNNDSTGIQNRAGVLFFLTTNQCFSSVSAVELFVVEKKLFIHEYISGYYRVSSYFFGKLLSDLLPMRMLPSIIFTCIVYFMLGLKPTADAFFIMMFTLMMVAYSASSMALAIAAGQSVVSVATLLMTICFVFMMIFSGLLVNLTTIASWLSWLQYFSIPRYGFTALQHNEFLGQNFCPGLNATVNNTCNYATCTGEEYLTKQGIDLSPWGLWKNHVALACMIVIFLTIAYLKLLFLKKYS

human ABCG2 [3] = biological target: T1, human ABCG2; experiment: FACS binding to 293T cells
[4] = biological target: T2, cynomolgus ABCG2 (Macaca fascicularis); experiment: FACS binding to 293T cells
G2_620 = experiment: FACS binding, 293T-G2OX cells
h5D3 [5] = experiment: FACS binding, 293T-G2OX cells
G2_656 = experiment: FACS binding to 293T cells
G2_377 = experiment: FACS binding to 293T cells
G2_336 = experiment: FACS binding to 293T cells
G2_709 = experiment: FACS binding to 293T cells
G2_418 = experiment: FACS binding to 293T cells
G2_639 = experiment: FACS binding to 293T cells
G2_745 = experiment: FACS binding to 293T cells
h5D3 [6] = experiment: FACS cell binding
h5D3 [7] = experiment: FACS cell binding; remark: listed apart in the source
KNJY-G2-333H = experiment: FACS cell binding

EC50 (human ABCG2 [1]): 27 nM
EC50 [2]: 65 nM
Kd (human ABCG2 [3]): 5.9 nM
Kd [4]: 17.1 nM
B1: G2.643 mouse (antibody, V domains shown)
VH: VNLVESGPELVKPGTSVKISCKASGYRFTSYYVHWVKQRPGQGLEWIGWIFPGSDNTKYNEKFKGKATLTADTSSSTAYMQLSSLTSEDSAVYFCASIYYGYDGTLYFDYWGQGTSVTVSS
VL: DIVMTQSHTFMSTSVGDRVSVTCKASQNVGNNVAWYQQKPGQSPNALIYSASYRYSGVPDRFTGSGSGTDFTLTISNVQSEDLAEYFCQQYDRYPLTFGGGTKLEIK

Kd (G2_620): 15.8 nM
Kd (h5D3 [5]): 2.99 nM
Kd (G2_656): 36.8 nM
Kd (G2_377): 16.7 nM
Kd (G2_336): 28.2 nM
Kd (G2_709): 20.6 nM
Kd (G2_418): 59 nM
Kd (G2_639): 46.8 nM
Kd (G2_745): 23.3 nM
B2: hG2 (other)
chain: MSSSNVEVFIPVSQGNTNGFPATASNDLKAFTEGAVLSFHNICYRVKLKSGFLPCRKPVEKEILSNINGIMKPGLNAILGPTGGGKSSLLDVLAARKDPSGLSGDVLINGAPRPANFKCNSGYVVQDDVVMGTLTVRENLQFSAALRLATTMTNHEKNERINRVIQELGLDKVADSKVGTQFIRGVSGGERKRTSIGMELITDPSILFLDEPTTGLDSSTANAVLLLLKRMSKQGRTIIFSIHQPRYSIFKLFDSLTLLASGRLMFHGPAQEALGYFESAGYHCEAYNNPADFFLDIINGDSTAVALNREEDFKATEIIEPSKQDKPLIEKLAEIYVNSSFYKETKAELHQLSGGEKKKKITVFKEISYTTSFCHQLRWVSKRSFKNLLGNPQASIAQIIVTVVLGLVIGAIYFGLKNDSTGIQNRAGVLFFLTTNQCFSSVSAVELFVVEKKLFIHEYISGYYRVSSYFLGKLLSDLLPMRMLPSIIFTCIVYFMLGLKPKADAFFVMMFTLMMVAYSASSMALAIAAGQSVVSVATLLMTICFVFMMIFSGLLVNLTTIASWLSWLQYFSIPRYGFTALQHNEFLGQNFCPGLNATGNNPCNYATCTGEEYLVKQGIDLSPWGLWKNHVALACMIVIFLTIAYLKLLFLKKYS

Kd (h5D3 [6]): 3.12 nM
Kd (h5D3 [7]): 81 nM
Kd (KNJY-G2-333H): 7.5 nM
B3: ABCG2 (other)
chain: MSSSNVEVFIPVSQGNTNGFPATASNDLKAFTEGAVLSFHNICYRVKLKSGFLPCRKPVEKEILSNINGIMKPGLNAILGPTGGGKSSLLDVLAARKDPSGLSGDVLINGAPRPANFKCNSGYVVQDDVVMGTLTVRENLQFSAALRLATTMTNHEKNERINRVIQELGLDKVADSKVGTQFIRGVSGGERKRTSIGMELITDPSILFLDEPTTGLDSSTANAVLLLLKRMSKQGRTIIFSIHQPRYSIFKLFDSLTLLASGRLMFHGPAQEALGYFESAGYHCEAYNNPADFFLDIINGDSTAVALNREEDFKATEIIEPSKQDKPLIEKLAEIYVNSSFYKETKAELHQLSGGEKKKKITVFKEISYTTSFCHQLRWVSKRSFKNLLGNPQASIAQIIVTVVLGLVIGAIYFGLKNDSTGIQNRAGVLFFLTTNQCFSSVSAVELFVVEKKLFIHEYISGYYRVSSYFLGKLLSDLLPMRMLPSIIFTCIVYFMLGLKPKADAFFVMMFTLMMVAYSASSMALAIAAGQSVVSVATLLMTICFVFMMIFSGLLVNLTTIASWLSWLQYFSIPRYGFTALQHNEFLGQNFCPGLNATGNNPCNYATCTGEEYLVKQGIDLSPWGLWKNHVALACMIVIFLTIAYLKLLFLKKYS
